Measurements as given in patent US20200317803A1, “ANTI-CD73, ANTI-PD-L1 ANTIBODIES AND CHEMOTHERAPY FOR TREATING TUMORS” (MEDIMMUNE, LLC, priority 2019, published 2020).
“Also recorded” adds a separate entry of the source.

How the values were obtained:
[1] = GLP 5-week repeat IV bolus dose toxicity study in CD-1 mice; assay type: in vivo
Experimental: (§1) Mouse and cynomolgus monkey were selected as pharmacologically relevant species for evaluation of the toxicity of oleclumab. […] Systemic and local toxicities of oleclumab were evaluated in Good Laboratory Practice (GLP) toxicity studies in CD-1 mice (5-week, repeat intravenous [IV] bolus dose, once every 4 days, total 9 doses) at 0 mg/kg, 100 mg/kg or 200 mg/kg and cynomolgus monkeys (5-week, repeat IV 30-minute infusion dose, once weekly, total 5 doses) at 0 mg/kg, 30.5 mg/kg, 103.7 or 300.7 mg/kg.

[2] = GLP 5-week repeat IV infusion toxicity study in cynomolgus monkeys; assay type: in vivo
Experimental: as §1

[3] = tested on: exogenous antigen (KLH) response; test: single dose cynomolgus monkey study: exogenous antigen (KLH) response; assay type: in vivo, cynomolgus monkeys; settings: single IV 1, 10 or 107.8 mg/kg
Experimental: (§2) Five male cynomolgus monkeys were administered a single IV bolus dose of oleclumab at a dose of 0 mg/kg, 1 mg/kg, 10 mg/kg or 107.8 mg/kg. Serum was collected prior to the first dose at 0.08, 0.5, 2, 8 and 24 hours and 2, 3, 5, 7, 10, 14, 21, 28 and 35 days post dosing.
To determine immune modulation, the exogenous antigen (KLH) response was measured. The exogenous antigen (KLH) response was determined by first immunizing the monkeys on day 1 with adjuvant free KLH. KLH T cell-dependent antibody response (TDAR) was conducted on days 7, 8, 11, 15, 22, 29, and 36. Ex vivo KLH stimulation of PBMC IFN-γ and IL-2 ELISPOT was determined on days 1, 4, 8, 7, 15, and 22.

[4] = tested on: endogenous pathogen response (EBV, CMV); test: single dose cynomolgus monkey study: endogenous pathogen response; assay type: in vivo, cynomolgus monkeys; settings: single IV 1, 10 or 107.8 mg/kg
Experimental: as §2
The endogenous pathogen response was also investigated by endogenous pathogen verification. Endogenous pathogen antibodies were measured using chemiluminescent ELISA on days 1, 8, 14, 15, and 29 and endogenous pathogen T cell IFN-γ ELISPOT was measured on days −14 and 29. LCV (monkey homologue of EBV) was detectable at low levels in most cynomolgus monkeys (FIG. 4).

[5] = Phase 1 study, pharmacokinetics and immunogenicity of oleclumab; assay type: in vivo; settings: human
Experimental: (§3) Safety was assessed by the presence of adverse events (AEs), serious adverse events (SAEs), DLTs, and changes from baseline in laboratory parameters, vital signs, and electrocardiogram results. The endpoints for assessment of antitumor activity included objective response (OR), disease control (DC), duration of response (DoR), progression-free survival (PFS), and overall survival (OS). RECIST v1.1 was used for assessment of tumor response. Pharmacokinetic parameters included, but were not limited to, maximum observed concentration, area under the concentration time curve, clearance, and terminal half-life. The endpoints for assessment of immunogenicity of oleclumab and durvalumab included the number and percentage of subjects who developed detectable anti-drug antibodies and the endpoints for assessment of pharmacodynamic activity included assessment of target expression (e.g., CD73, PD-L1) in tumor biopsy specimens.
(§4) In the oleclumab monotherapy dose-escalation arm, sequential cohorts of 3 to 6 subjects each received 1 of 4 dose levels of oleclumab (5, 10, 20, or 40 mg/kg) via IV infusion Q2W unless the maximum tolerated dose (MTD) was reached before all dose-escalation cohorts were completed (FIG. 8). In the oleclumab/durvalumab combination therapy dose-escalation arm, sequential cohorts of 3 to 6 subjects each received 1 of 4 dose levels of oleclumab (5, 10, 20, or 40 mg/kg) and a single dose level of 10 mg/kg durvalumab via IV infusion Q2W, unless the MTD was reached before all dose-escalation cohorts were completed (FIG. 8). If the MTD of oleclumab was exceeded at the 5 mg/kg dose level in the monotherapy or combination therapy arm, a lower dose level of 2 mg/kg oleclumab was explored in that arm.
The following PK data is based on a total of 97 subjects following treatment with oleclumab 5 to 40 mg/kg Q2W administered either as monotherapy (n=40) or in combination with durvalumab at 10 mg/kg Q2W (n=57). […] Serum exposures were similar when oleclumab was administered either alone or in combination with durvalumab.

CD73 [6] = molecular target: T1, CD73 (Homo sapiens, UniProt P21589); test: pharmacokinetic/pharmacodynamic model and human dose prediction; settings: determined from tumor suppression data in syngeneic mice
T1 construct: from tissue; host or cells: patients' serum, peripheral T cells and tumour biopsies
T1 sequence (P21589 27-549): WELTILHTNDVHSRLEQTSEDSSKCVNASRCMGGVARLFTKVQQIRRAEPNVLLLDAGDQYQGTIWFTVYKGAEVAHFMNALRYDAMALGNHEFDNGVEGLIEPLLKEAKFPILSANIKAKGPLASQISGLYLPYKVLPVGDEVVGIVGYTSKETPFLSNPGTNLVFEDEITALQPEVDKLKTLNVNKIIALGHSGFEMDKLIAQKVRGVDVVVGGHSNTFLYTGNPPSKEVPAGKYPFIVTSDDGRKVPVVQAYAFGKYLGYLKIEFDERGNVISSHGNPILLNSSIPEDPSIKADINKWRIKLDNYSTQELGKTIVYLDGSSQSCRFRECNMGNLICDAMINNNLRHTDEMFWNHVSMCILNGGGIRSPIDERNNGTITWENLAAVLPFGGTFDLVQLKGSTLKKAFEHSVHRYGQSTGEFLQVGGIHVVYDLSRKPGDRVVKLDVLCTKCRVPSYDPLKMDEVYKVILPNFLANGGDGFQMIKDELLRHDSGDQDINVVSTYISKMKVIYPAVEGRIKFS
Description: A two-compartment model with linear and target-mediated drug disposition clearance was used to adequately describe the MEDI9447 serum concentration profiles. This model was used to describe the monkey pharmacokinetic data and then resulting parameters were allometrically scaled to humans to predict doses using simulation. (See Example 2.)
FIGS. 6A and 6B show cynomolgus pharmacokinetic modeling and human dose prediction. Cynomolgus serum MEDI9447 concentration profiles (FIG. 6A) were described adequately all three different dose levels by a non-linear model shown schematically in (FIG. 5). Following allometric scaling of the pharmacokinetics parameters from this model, human serum concentration profiles were simulated (FIG. 6B). […] (See Example 2.)
Oleclumab dose selection was based on nonclinical data and clinical safety margins based on nonclinical safety data as described above for mice and monkeys. The pharmacologically driven starting dose level of 5 mg/kg oleclumab was anticipated to have 98% to 91% saturation of CD73 in the first dosing interval (peak and trough, respectively). […] The dose-escalation scheme in this study was designed to achieve higher and more sustained suppression of CD73 target, while maintaining adequate safety margins. […]

[7] = tested on: blood or peripheral blood mononuclear cell from healthy donors; test: human in vitro cytokine release assays; assay type: cell-based; settings: in solution or immobilized on plastic wells by dry-coating
Experimental: The ability of oleclumab (alone or in combination with durvalumab) to induce cytokine release was evaluated in human in vitro assays using blood or peripheral blood mononuclear cell from healthy donors.

CD73 [8] = molecular target: T1, CD73; test: Phase 1 study, pharmacodynamics (soluble, T cell and tumor CD73); assay type: in vivo; settings: for CD73 surface expression on peripheral T cells (MFI, percent CD73+ CD4 and CD8 cells): human
Experimental: as §3, §4

EGFRm NSCLC = settings: ATLANTIC trial, comparison for EGFRm NSCLC; cited from earlier work
[9] = cynomolgus monkey, in vivo, 300.7 mg/kg

oleclumab: human immunoglobulin G1 lambda mAb that selectively binds to and inhibits the ectonucleotidase activity of CD73; VL SEQ ID NO: 1, VH SEQ ID NO: 2
no-observed-adverse-effect level (NOAEL) ([1]; CD-1 mice, highest dose tested): 200 mg/kg/dose | AUC0-96hr ([1]; mouse, in vivo, 200 mg/kg): 229,000 μg·hr/mL | Cmax ([1]; mouse, in vivo, 200 mg/kg): 6,200 μg/mL | effects on safety pharmacology endpoints (ECGs, blood pressure, behavioral examinations) ([2]; cynomolgus monkey, in vivo): no oleclumab-related effects | AUC0-168.5hr [2, 9]: 834,000 μg·hr/mL | Cmax [2, 9]: 11,000 μg/mL | no-observed-adverse-effect level (NOAEL) ([2]; cynomolgus monkeys, highest dose tested): 300.7 mg/kg/dose | T cell responses to ex vivo KLH stimulation (IFN-γ, IL-2 ELISPOT of PBMC) [3]: did not vary with oleclumab treatment; also recorded: did not increase | anti-KLH IgM and IgG antibody responses (KLH TDAR) [3]: did not show dose-dependent increase; also recorded: did not enhance | responses to exogenous antigen (KLH) [3]: did not enhance responses | IgG titers to EBV gp125 and CMV gB [4]: did not vary with oleclumab treatment | T cell responses to EBV BZLF1 and inactivated human CMV [4]: did not vary consistently with oleclumab treatment | anti-drug antibodies (ADAs) [5]: No ADAs were detected | estimated effective half-life in the dosing duration [5]: ~13 days | serum concentration expected to saturate >99% CD73 [5]: above 40 μg/mL | serum exposures alone versus in combination with durvalumab ([5]; 5 to 40 mg/kg Q2W): similar | increase of Ctrough with dose ([5]; from oleclumab 5 to 10 mg/kg): more than proportional | increase of Ctrough with dose ([5]; from oleclumab 10 to 40 mg/kg): approximately dose proportional | PK linearity at lowest dose ([5]; oleclumab 5 mg/kg Q2W, monotherapy and combination cohorts): nonlinear PK | PK linearity at higher doses ([5]; oleclumab 10 mg/kg and higher Q2W): Linear PK | serum exposure target (CD73 [6]): 52 µg/mL | cytokine release [7]: did not induce cytokine release | CD73 staining tumor cells by IHC (CD73 [8]; 40 mg/kg dose, 20 days after treatment initiation): decrease in CD73 staining tumor cells | total CD4 and CD8 cells (CD73 [8]; human peripheral blood, across all doses): without a concomitant decrease | CD73 enzymatic activity in tumor microenvironment (CD73 [8]; human tumor staining): inhibited CD73 enzymatic activity | CD73 surface expression on peripheral T cells (MFI, percent CD73+ CD4 and CD8 cells) (CD73 [8]; across all doses): decreased CD73 on peripheral T cells | CD73 surface expression on peripheral T cells (MFI, percent CD73+ CD4 and CD8 cells) (CD73 [8]; across all doses, listed as Oleclumab): decreased CD73 surface expression | free serum soluble CD73 levels (CD73 [8]; majority of subjects at all times after the first dose, limit of detection): < 0.25 ng/mL | patients with decreased tumoral CD73 expression (CD73 [8]; oleclumab alone, patients who expressed >5% 2+/3+ CD73 at baseline): 5/9 | CD8+ TILs (CD73 [8]; samples with decreased tumoral CD73): increasing CD8+ TILs in all 5 samples | tissue cross reactivity staining (human tissue panel): staining with oleclumab was observed in multiple cell types

durvalumab: antibody that selectively binds PD-L1 and blocks the binding of PD-L1 to the PD-1 and CD80 receptors
ORR, durvalumab monotherapy (EGFRm NSCLC): 9.8%
